Fewer inactive variants are shown than the library holds.
B1: TPR 5TU (parent)
chain: GGAUCUUCUCGAUCUAACAAAAAAGACAAAUCUGCCACAAAGCUUGAGAGCAUCUUCGGAUGCAGAGGCGGCAGCCUUCGGUGGCGCGAUAGCGCCAACGUUCUCAACUAUGACACGCAAAACGCGUGCUCCGUUGAAUGGAGUUUAUCAUG

Variants of: B1
Test: polymerase ribozyme fitness, log enrichment relative to wild type (log ratio); higher = more active; in vitro selection for triplet polymerase activity
Outline: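 Mutant libraries of both subunits of a heterodimeric triplet polymerase ribozyme were PCR-built, transcribed, and selected once in triplicate, with frozen incubation at −7 °C and capture of gel-excised extended constructs on streptavidin beads before RT-PCR. Illumina sequencing of input and output libraries was filtered to genotypes with ≥10 input reads and ≥1 read per output. Fitness is the logarithm of genotype enrichment over wild-type enrichment, using inverse-variance-weighted replicate averages. The logarithm is base 2.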

| Variant | polymerase ribozyme fitness (log ratio) |
| --- | --- |
| A40U G86A | -0.914 |
| A40U A107U C132G | ≤ -4.2 |
| A41C U56A C85A G117A G140A | ≤ -4.2 |
| A40U C99U G117C | -0.515 |
| A41G U44A U55A | -3.41 |
| A40U C79G A91G | ≤ -4.2 |
| A41C G88A G92A A115U U151G | ≤ -4.2 |
| A40G G81A G88C | ≤ -4.2 |
| A40G G59A C93A | -4.07 |
| A40G U53G G84A A110G G136U | ≤ -4.2 |
| A41C G92U A98G C123G G133C U134A G152U | ≤ -4.2 |
| A40U G92C U102C C103G A113G C132G U146C G152U | ≤ -4.2 |
| A41C A49C G50U C51A G92C A106G | ≤ -4.2 |
| A41G A49C G68U C76U C93U A97U | ≤ -4.2 |
| A41C G58A G68A U104C A113C A147C | ≤ -4.2 |
| A40G U56G C85A A115U U134C | -4.09 |
| A41G G42A G48C C93A A106C U109C A137C | ≤ -4.2 |
| A41G C76U G86A G117A | -0.646 |
| A41C U53G | -3.43 |
| A40U U82G G92A | -2.82 |
| A40U G84U C85A | -0.755 |

| Variant | polymerase ribozyme fitness (log ratio) |
| --- | --- |
| A40G C87U C103G | ≤ -4.2 |
| A40U C75G C85G U135G G140U | ≤ -4.2 |
| A40U G62U C72G G80C U82C A138U | ≤ -4.2 |
| A40U A41C C96U | -0.566 |
| A41C C93G | -3.5 |
| A41C G67A G81U G94C A107C | ≤ -4.2 |
| A40U A52G C132G | -3.47 |
| A41C A113U C114A | ≤ -4.2 |
| A40U C57U C76A | -0.244 |
| A41C G59U C87U A120U A122C G124U U146C | -2.2 |
| A41G G58C U61C U82G C87G U104G C118G G141U | ≤ -4.2 |
| A40U A41U A49U G59A C87G U146G | ≤ -4.2 |
| A41C C63G G92U | -0.619 |
| A41C A137C | -3.61 |
| A40U A91G | -3.33 |
| A40U G42U C69U A89G A91U A106C C149U | ≤ -4.2 |
| A40U C51U C93U | -1.15 |
| A41C A47C U56A C85U | -1.41 |
| A41C G94C | -1.8 |
| A41G C96A | 0.0745 |
| A41U C54A G59A C85G | -3.6 |

| Variant | polymerase ribozyme fitness (log ratio) |
| --- | --- |
| A40U U55A G86A G133U | ≤ -4.2 |
| A40U G48C C69G C85U | -1.48 |
| A41G G143U | -1.73 |
| A41C G50A G86U A137C C149A | ≤ -4.2 |
| A40U U45A C69U G83U G141A U144A | ≤ -4.2 |
| A41C U61A C76A A91U C99A A110U A150C | ≤ -4.2 |
| A41U A120G G143A | -2.06 |
| A41G G88A G143A | ≤ -4.2 |
| A41C A52C G70A C118U | ≤ -4.2 |
| A40U U61A C79A U104G | ≤ -4.2 |
| A41C A91C C118A C125A A150U | ≤ -4.2 |
| A41C C51A U56A G58C U82C C87A G136U | ≤ -4.2 |
| A41C C96A | -0.56 |
| A41U A49C | -3.83 |
| A41C A97G A121G | -0.295 |
| A41U A89U C93U G117U A147U | -2.89 |
| A40U G94U G136C | -4.02 |
| A40G G124U | -2.64 |
| A41C C105A | -2.1 |
| A40G C116G A120U | -1.72 |
| A40G G94C | -1.82 |

| Variant | polymerase ribozyme fitness (log ratio) |
| --- | --- |
| A40U C87U G88U | ≤ -4.2 |
| A41C G67C G68A G88C G92A A107C | ≤ -4.2 |
| A41C C103A | -1.44 |
| A41G G59A G81U C95A C114U | -1.27 |
| A40G C95A U104G A142G | -3.8 |
| A41G G50C C85U C87A C103U C105G A115U | ≤ -4.2 |
| A41C G59A G94A A119C | -1.52 |
| A40U C114U | -2.19 |
| A41C G86U A89G G140A | ≤ -4.2 |
| A40G G58C C79G C87U G136U | ≤ -4.2 |
| A40U U61A A107U G128U U151C | ≤ -4.2 |
| A41G A60U U130C | -0.614 |
| A40U U56A G80C G84U C99A G143U | ≤ -4.2 |
| A41C C87U | -1.35 |
| A41C C87G | ≤ -4.2 |
| A41C C57U C87G A98U G136U A147C | ≤ -4.2 |
| A40U C87U A89G | -3.2 |
| A41C U56A U82A A150G | -1.45 |
| A41C C72G A106G G143C U151G | ≤ -4.2 |
| A40U C57U A89C C99G A119G | -1.22 |
| A41U A49G A52C G84A C103G A115U | ≤ -4.2 |

— the RNAGym collection of RNA variant scans (doi:10.1073/pnas.2313332121)
